This is an account of results in paper PMC6601351 (Structure (London, England : 1993), 2018).

Common to all, as to assay: ITC
On the technique in general: In ITC the heat of successive injections is recorded.

For experiment [1], the target named is PP1α_(7–330) (human) (UniProt P62136).
Experiment [2] addresses PP1γ_(7–323) (human, UniProt P36873 7-323).
Experiment [3] deals with PP1γ_(7–300) (human, UniProt P36873 7-300).

The term Kd denotes the free concentration of one partner at which half of the binding sites on the other are occupied at equilibrium, for simple one-to-one binding. A lower Kd goes with a tighter complex.

Sequence of PP1γ_(7–323) (P36873 7-323): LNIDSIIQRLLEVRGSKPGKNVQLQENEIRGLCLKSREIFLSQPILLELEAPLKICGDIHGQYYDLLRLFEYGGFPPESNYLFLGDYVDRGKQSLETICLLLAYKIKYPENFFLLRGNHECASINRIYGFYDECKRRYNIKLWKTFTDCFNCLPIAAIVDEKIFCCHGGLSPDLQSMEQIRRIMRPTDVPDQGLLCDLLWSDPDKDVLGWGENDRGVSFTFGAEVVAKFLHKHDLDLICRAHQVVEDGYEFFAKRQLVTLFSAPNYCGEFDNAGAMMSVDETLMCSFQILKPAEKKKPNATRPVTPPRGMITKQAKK
Sequence of PP1γ_(7–300) (P36873 7-300): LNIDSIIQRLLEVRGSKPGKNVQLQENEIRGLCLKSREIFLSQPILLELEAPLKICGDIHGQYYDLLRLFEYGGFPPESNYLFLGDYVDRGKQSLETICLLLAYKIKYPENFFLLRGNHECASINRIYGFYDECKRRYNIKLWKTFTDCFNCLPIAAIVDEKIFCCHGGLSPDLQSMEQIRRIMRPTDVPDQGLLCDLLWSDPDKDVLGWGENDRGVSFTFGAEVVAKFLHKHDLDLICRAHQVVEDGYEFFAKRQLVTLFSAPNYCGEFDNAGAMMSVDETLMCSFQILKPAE

Take “KNL1_(1–80) (from UniProt Q8NG31 1-80) (domain or fragment)”: in experiment [1], the Kd was 46.4 nM and the dH was -22.6 kcal/mol.
Take “KNL1_(1–80)S24AS25A (from UniProt Q8NG31 1-80) (domain or fragment)”: in experiment [1], the Kd stood at 93.5 nM and the dH is -21.5 kcal/mol.
On to “KNL1_(1–80)S24DS25D (from UniProt Q8NG31 1-80) (domain or fragment)”, for which, in experiment [1], the Kd was found to be 267 nM and the dH was -10.9 kcal/mol.
In experiment [1], “KNL1_(1–80)S56D (from UniProt Q8NG31 1-80) (domain or fragment)” registered a Kd of 14.7 nM and a dH of -12.4 kcal/mol.
For “KNL1_(1–80)S60A (from UniProt Q8NG31 1-80) (domain or fragment)”, in that order: 154 nM and -20.1 kcal/mol.
The matching figures for “KNL1_(1–80)S60D (from UniProt Q8NG31 1-80) (domain or fragment)”: 236 nM and -30.7 kcal/mol.
For “KNL1_(1–80)SILK/AAAA (SILK_(dead)) (from UniProt Q8NG31 1-80) (domain or fragment)”, in that order: 228 nM and -21.5 kcal/mol.
Consider “KNL1_(23–80) (from UniProt Q8NG31 23-80) (domain or fragment)”, for which, in experiment [1], the Kd was 89 nM and the dH is -13.7 kcal/mol.

B1: KNL1_(1–80) (domain or fragment, human, UniProt Q8NG31 1-80, looked up)
chain: MDGVSSEANEENDNIERPVRRRHSSILKPPRSPLQDLRGGNERVQESNALRNKKNSRRVSFADTIKVFQTESHMKIVRKS
Turning to B1, in experiment [2], the Kd was 38.3 nM and the dH is -8.6 kcal/mol.

B2: KNL1_(23–80) (domain or fragment, human, UniProt Q8NG31 23-80, looked up)
chain: HSSILKPPRSPLQDLRGGNERVQESNALRNKKNSRRVSFADTIKVFQTESHMKIVRKS
In experiment [2], B2 gave a Kd of 52.4 nM and a dH of -10 kcal/mol. In experiment [3], this molecule came in with a dissociation constant Kd of 82 nM and a dH of -28.3 kcal/mol.

B3: KNL1_(1–150) (domain or fragment, human, UniProt Q8NG31 1-150, looked up)
chain: MDGVSSEANEENDNIERPVRRRHSSILKPPRSPLQDLRGGNERVQESNALRNKKNSRRVSFADTIKVFQTESHMKIVRKSEMEGCSAMVPSQLQLLPPGFKRFSCLSLPETETGENLLLIQNKKLEDNYCEITGMNTLLSAPIHTQMQQK
As for B3, in experiment [2], the Kd is 55.2 nM and the dH was -9.3 kcal/mol.
